Source: publication PMC11187310, “Are there double knots in proteins? Prediction and in vitro verification based on TrmD-Tm1570 fusion from C. nitroreducens” (Frontiers in Molecular Biosciences, 2023)

B1: TrmD-Tm1570 fusion protein from Calditerrivibrio nitroreducens (enzyme, UniProt E4THH1 1-433, looked up)
chain: MKRYNVITIFPEMINEIFKYGVLSKGIDIGLFRVNPINLRDYTEDKHKTVDDYQYGGGHGLVMKPEPIYKAIADLKSKKDTHVVFLDPRGEQFTQKTAERLYNYDDITFVCGRYEGIDDRVRELMADEMISIGDFVITGGELAAVTIIDAVARLIPGVLGDENSPNEESFTTGLLEYPHFTRPAEFMGKKVPEVLISGNHEEIRRWRLTESIKTTLQNRPDMILRKSLSREEEQILWSLTRGVQRKYNIYVALMHYPMRDKEGKVVTTSITNMDLHDISRSCRTFGVKNYFVVNPMPAQREIASRVVRHWIKGYGATYNENRKEAFEYTIITDSLASVIKSIEEKESGSPIIIATTARYQQKAISIEKLKEIADRPILLLFGTGWGFVDDILEFADYVLKPIHGVGDFNHLSVRSAVAIYLDRINRSFQEDIL
notes: TrmD-Tm1570 (PF01746-PF09936 architecture) of Calditerrivibrio nitroreducens, UniProtKB E4THH1; full-length protein, residues 1-433 by the limits of the two truncated domains; 49.6 kDa monomer; Codon-optimized synthetic gene in pET28b; further details of the constructs are in SI Materials and Methods; also called CnTrmD-Tm1570; fusion TrmD-Tm1570
B2: TrmD domain of CnTrmD-Tm1570 (residues 1-240) (domain or fragment, Calditerrivibrio nitroreducens, UniProt E4THH1 1-240, looked up)
chain: MKRYNVITIFPEMINEIFKYGVLSKGIDIGLFRVNPINLRDYTEDKHKTVDDYQYGGGHGLVMKPEPIYKAIADLKSKKDTHVVFLDPRGEQFTQKTAERLYNYDDITFVCGRYEGIDDRVRELMADEMISIGDFVITGGELAAVTIIDAVARLIPGVLGDENSPNEESFTTGLLEYPHFTRPAEFMGKKVPEVLISGNHEEIRRWRLTESIKTTLQNRPDMILRKSLSREEEQILWSLT
notes: TrmD domain of TrmD-Tm1570 of Calditerrivibrio nitroreducens, UniProtKB E4THH1, residues 1-240; 27.5 kDa monomer; Truncated version of m1
B3: single-domain EcTrmD (enzyme, E. coli (from the label EcTrmD), UniProt P0A873 1-255, looked up)
chain: MWIGIISLFPEMFRAITDYGVTGRAVKNGLLSIQSWSPRDFTHDRHRTVDDRPYGGGPGMLMMVQPLRDAIHAAKAAAGEGAKVIYLSPQGRKLDQAGVSELATNQKLILVCGRYEGIDERVIQTEIDEEWSIGDYVLSGGELPAMTLIDSVSRFIPGVLGHEASATEDSFAEGLLDCPHYTRPEVLEGMEVPPVLLSGNHAEIRRWRLKQSLGRTWLRRPELLENLALTEEQARLLAEFKTEHAQQQHKHDGMA
notes: tRNA methyltransferase D (TrmD), single-domain protein, labelled EcTrmD; 28.4 kDa monomer; The printed monomer mass of 28.4 kDa fits the whole protein

Key:
[1] = molecular target: Tm1570 domain of CnTrmD-Tm1570 (residues 241-433) (Calditerrivibrio nitroreducens); test: SEC; preparative Superdex 75 column; running buffer 50 mM Hepes, 300 mM NaCl, 10% glycerol, 1 mM TCEP, pH 7.4; proteins refolded from urea; oligomer state judged by retention volumes
[2] = molecular target: the molecule itself; test: as above

| Molecule | stoichiometry N [2] | other results |
| --- | --- | --- |
| Tm1570 domain of CnTrmD-Tm1570 (residues 241-433) (domain or fragment) | – | stoichiometry N [1]: 2 |
| B1 | 2 | – |
| B2 | 2 | – |
| B3 | – | binding result [2]: binds |
